Test results taken from PMC7786401.

Experiments:
[1] = target: angiotensin II type 1 receptor A244S (human) (UniProt P30556)
[2] = target: angiotensin II type 1 receptor I103T-A244S (human) (UniProt P30556)
[3] = target: angiotensin II type 1 receptor, wild type (human) (UniProt P30556)
[4] = target: angiotensin II type 1 receptor I103T (human) (UniProt P30556)

Chain of βarrestin2-RlucII (P32121 whole entry): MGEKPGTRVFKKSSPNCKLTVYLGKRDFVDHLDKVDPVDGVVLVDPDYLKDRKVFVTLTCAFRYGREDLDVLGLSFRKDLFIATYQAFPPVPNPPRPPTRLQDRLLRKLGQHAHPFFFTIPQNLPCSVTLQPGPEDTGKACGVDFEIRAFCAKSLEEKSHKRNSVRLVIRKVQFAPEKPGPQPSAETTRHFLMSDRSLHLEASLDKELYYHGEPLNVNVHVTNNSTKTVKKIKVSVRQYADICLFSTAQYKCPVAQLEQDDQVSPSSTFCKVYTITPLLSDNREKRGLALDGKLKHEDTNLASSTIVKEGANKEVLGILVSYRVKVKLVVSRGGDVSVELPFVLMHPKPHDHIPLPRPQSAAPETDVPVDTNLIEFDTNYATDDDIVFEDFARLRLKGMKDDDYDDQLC

AngII-stimulated β-arrestin 2 recruitment to the membrane (BRET2 between βarrestin2-RlucII and rGFP-CaaX), Emax (% WT) [1]: 106 % WT | AngII-stimulated β-arrestin 2 recruitment to the membrane (BRET2 between βarrestin2-RlucII and rGFP-CaaX), pEC50 of AngII [1]: 8.68 | AngII-stimulated β-arrestin 2 recruitment to the membrane (BRET2 between βarrestin2-RlucII and rGFP-CaaX), Emax (% WT) [2]: 50 % WT | AngII-stimulated β-arrestin 2 recruitment to the membrane (BRET2 between βarrestin2-RlucII and rGFP-CaaX), pEC50 of AngII [2]: 8.5 | AngII-stimulated β-arrestin 2 recruitment to the membrane (BRET2 between βarrestin2-RlucII and rGFP-CaaX), pEC50 of AngII [3]: 8.49 | AngII-stimulated β-arrestin 2 recruitment to the membrane (BRET2 between βarrestin2-RlucII and rGFP-CaaX), Emax (% WT) [4]: 97 % WT | AngII-stimulated β-arrestin 2 recruitment to the membrane (BRET2 between βarrestin2-RlucII and rGFP-CaaX), pEC50 of AngII [4]: 8.54
Substance: βarrestin2-RlucII (from UniProt P32121 1-409) (natural protein)
